Laboratory results from patent US20170218055A1 (UNIVERSITY OF CHICAGO, published 2017).

T1: peptide H3 (helix 3 of the EKKAA IgBD)
T1 construct: Synthetic linear peptide
T1 peptide: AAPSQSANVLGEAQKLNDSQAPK

T2: peptide H2 (helix 2 of the EKKAA IgBD)
T2 construct: Synthetic linear peptide
T2 peptide: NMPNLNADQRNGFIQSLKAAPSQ

T3: peptide H1 (helix 1 of the EKKAA IgBD)
T3 construct: Synthetic linear peptide, free NH2 and COOH ends as printed
T3 peptide: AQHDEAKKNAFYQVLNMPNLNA

B1: mAb 3D11 (antibody, V domains shown)
VH: QSGPELMKPGASVKISCKASGYSFTSYYMHWVKQSHGKSLEWIGYIDPFNGGTSYNQKFKGKATLTVDKSSSTAYMHLSSLTSEDSAVYYCARYGYDGTFYAMDYWGQGTSVTVSS
VL: RIVLTQSPAITAASLGQKVTITCSASSSVSYMHWYQQKSGTSPKPWIYEISKLASGVPARFSGSGSGTSYSLTISSMEAEDAAIYYCQQWSYPFTFGSGTKLEIK
notes: Mouse IgG2b hybridoma mAb raised against SpAKKAA; also called 3D11-HRP; HRP-3D11
B2: mAb 7E2 (antibody, V domains shown)
VH: QIQLVQSGPELKKPGETVKISCKASGYTFTDYSVHWVKQAPGKGLKWMAWINTATGEPTFADDFKGRFAFSLETSARTAYLQINNLKNEDTATYFCAPQLTGPFAYWGHGTLVTVSA
VL: DIQMTQSPASLSASVGETVTITCRASENIHNYLAWYQQKQGKSPQLLVYNAKTLTDGVPSRFSGSGSGTQFSLKINSLQAGDFGSYYCQHSWSIPYTFGGGTRLQIR
notes: Mouse IgG1 hybridoma mAb
B3: mAb 3A6 (antibody, V domains shown)
VH: QIQLVQSGPELKKPGETVKISCKASGYNFTDYSMHWVKQAPGKGLKWVGWINTETAESTYADDFKGRFAFSLETSASTAYLQINSLKDEDTATFFCAHFDCWGQGTTLTVSS
VL: DVVMTQISLSLPVTLGDQASISCRASQSLVHSNGNTYLNWYLQKPGQSPKLLIHKVSNRFSGVPDRFSGSGSGTDFTLKISRVEAEDLGVYFCSQITYVPWTFGGGTKLEIK
notes: Mouse IgG1 hybridoma mAb
B4: mAb 5A10 (antibody, V domains shown)
VH: EVKLVESGGGLVKPGGSLKLSCAASGFAFSNYDMSWVRQTPEKRLEWVATISSGGTYPYYPDSVKGRFTISRDNAKNTLYLQLSSLRSEDTALYYCARGGFLITTRDYYAMDYWGQGTSVTVSS
VL: TIVLTQSPAIMSASPGEKVTMTCSASSSVSYMYWYQQKPGSSPRLLIYDTSNLASGVPVRFSGSGSGTSYSLTISRMEAEDAATYYCQQWSSYPPTFGGGTKLEIK
notes: Mouse IgG1 hybridoma mAb raised against SpAKKAA; also called 5A10-HRP; HRP-5A10
B5: mAb 2F2 (antibody, V domains shown)
VH: VKLVESGGDLVKPGGSLKLSCAASRFTFSSYVMSWVRQTPEKRLEWVASIGSGGTTYYPDTVKGRFTISRDNARNILYLQMSSLRSDDTAMYYCTRGRGYGFAWYFDVWGAGTTVTVSS
VL: B4 VL
notes: Mouse IgG2b hybridoma mAb
B6: mAb 8E2 (antibody, V domains shown)
VH: KVQLQQSGAGLVKPGASVKLSCKASGYTFTEYSIHWVKQSSGQGLEWIGWFYPGSGYIKYNEKFKDKATLTADKSSSTVYMEFSRLTSEDSAVYFCARHGYGNYVGYAMDYWGQGTSVTVSS
VL: DIQMTQSPASLSASVGETVTITCRASEIIYSYLAWYQQKQGKSPQLLVYFAKTLAEGVPSRFSGSGSGTQFSLKINSLQPEDFGIYYCQHHYGTPYTFGGGTKLEIK
notes: Mouse IgG1 hybridoma mAb
B7: mAb 6D11 (antibody, V domains shown)
VH: QVQLQQSGAELVRPGTSVKVSCKASGNAFTNYLIEWIKQRPGQGLEWIGVINPGSGITNYNEKFKGKATLTADKSSNTAYMQLSSLSSDDSAVYFCSGSANWFAYWGQGTLVTVSA
VL: DIVLTQSPASLAVSLGQRASISCRASESVEYSGASLMQWYQHKPGQPPKLLIYAASNVESGVPVRFSGSGSGTDFSLNIHPVEEDDIAMYFCQQSRKVPSTFGGGTKLEIK
notes: Mouse IgG2a hybridoma mAb

Molecular target: T4, EKKAA immunoglobulin binding domain of SpAKKAA (Staphylococcus aureus, UniProt A0A0H3K686 37-92)
T4 construct: also called SpA-EKKAA; E domain; not shown: N-terminal six histidyl tag (pET15b)
Test: ELISA, antigen-coated plate

Binder	binding result
B1	no binding

Molecular target: T4, EKKAA immunoglobulin binding domain of …
Test: ELISA, antigen-coated plate, mAb titrated

Binder	Ka [M⁻¹]
B2	2.9e+08
B3	1.38e+09
B4	9.4e+09
B5	1.72e+09
B6	1.4e+09

Molecular target: T5, SpAKKAA (non-toxigenic staphylococcal protein A variant) (Staphylococcus aureus, UniProt A0A0H3K686 37-327)
T5 construct: The four substitutions are made in each of the five domains (20 in all); Purified from E. coli; also called non-toxigenic protein A
Test: ELISA, antigen-coated plate, mAb titrated

Binder	Ka [M⁻¹]
B2	3.1e+08
B3	1.37e+09
B4	8.47e+09
B5	1.9e+09
B6	1.56e+09
B1	3.93e+09

Molecular target: T1, peptide H3 (helix 3 of the EKKAA IgBD)
Test: ELISA, antigen-coated plate, mAb titrated

Binder	Ka [M⁻¹]
B3	1e+07

Molecular target: T2, peptide H2 (helix 2 of the EKKAA IgBD)
Test: ELISA, antigen-coated plate, mAb titrated

Binder	Ka [M⁻¹]
B7	1e+07

Molecular target: T3, peptide H1 (helix 1 of the EKKAA IgBD)
Test: ELISA, antigen-coated plate, mAb titrated

Binder	Ka [M⁻¹]
B3	6e+07
B7	2.7e+08
B1	2e+07

Molecular target: T6, DKKAA immunoglobulin binding domain of SpAKKAA (Staphylococcus aureus, UniProt A0A0H3K686 96-149)
T6 construct: the construct is said to span residues 57-117 of mature SpA (61 residues), so its limits differ from the entry; not shown: N-terminal six histidyl tag (pET15b)
Test: ELISA, antigen-coated plate, mAb titrated

Binder	Ka [M⁻¹]
B2	3e+08
B7	2.42e+09
B4	8.19e+09
B5	1.76e+09
B6	1.51e+09

Molecular target: T7, BKKAA immunoglobulin binding domain of SpAKKAA (Staphylococcus aureus, UniProt A0A0H3K686 214-265)
T7 construct: not shown: N-terminal six histidyl tag (pET15b)
Test: ELISA, antigen-coated plate, mAb titrated

Binder	Ka [M⁻¹]
B2	3.2e+08
B3	6.4e+08
B4	7.03e+09
B5	1.13e+09
B6	1.14e+09
B1	3.92e+09

Molecular target: T8, CKKAA immunoglobulin binding domain of SpAKKAA (Staphylococcus aureus, UniProt A0A0H3K686 214-323)
T8 construct: the construct is said to span residues 234-291 of mature SpA and its limits may differ from the entry; not shown: N-terminal six histidyl tag (pET15b)
Test: ELISA, antigen-coated plate, mAb titrated

Binder	Ka [M⁻¹]
B2	2.8e+08
B3	4e+07
B7	4.75e+09
B4	1.01e+10
B5	1.8e+09
B6	1.26e+09
B1	3.6e+09

Molecular target: T9, AKKAA immunoglobulin binding domain of SpAKKAA (Staphylococcus aureus, UniProt A0A0H3K686 156-207)
T9 construct: the construct is said to span residues 118-175 of mature SpA and its limits may differ from the entry; not shown: N-terminal six histidyl tag (pET15b)
Test: ELISA, antigen-coated plate, mAb titrated

Binder	Ka [M⁻¹]
B2	3.6e+08
B3	2.05e+09
B4	8.08e+09
B5	1.37e+09
B6	1.52e+09
B1	8.7e+08

Molecular target: T10, peptide H1+2 (helices 1+2 of the EKKAA IgBD)
T10 construct: Synthetic linear peptide; also called helix 1+2 peptide
Test: ELISA, antigen-coated plate, mAb titrated

Binder	Ka [M⁻¹]
B3	4.4e+08
B7	5.22e+09
B6	2.9e+08
